Measured values from publication PMC12632272.

What was measured:
[1] = molecular target: T1, CRP (cAMP receptor protein) (Escherichia coli ATCC 25922) (UniProt P0ACJ8); assay: EMSA; conditions: EMSA: 20 mM Tris (pH not stated), 10 mM MgCl2, 0.1 mM EDTA, 100 mM KCl, 200 uM cAMP, room temperature 15 min; 5% gel, 0.3x TBE, 150 V, 20 C
T1 sequence: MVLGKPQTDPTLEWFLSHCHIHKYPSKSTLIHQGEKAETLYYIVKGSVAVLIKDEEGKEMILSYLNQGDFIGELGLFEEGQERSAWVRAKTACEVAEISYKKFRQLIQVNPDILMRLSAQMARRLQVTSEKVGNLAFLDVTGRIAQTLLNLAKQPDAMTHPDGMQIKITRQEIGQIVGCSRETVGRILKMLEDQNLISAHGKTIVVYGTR

[2] = molecular target: T1, CRP (cAMP receptor protein) (Escherichia coli ATCC 25922); assay: competition; conditions: EMSA: 20 mM Tris (pH not stated), 10 mM MgCl2, 0.1 mM EDTA, 100 mM KCl, 200 uM cAMP, room temperature 15 min; 5% gel, 0.3x TBE, 150 V, 20 C

Sequence | binding [1] | binding [2]
CGCCTAAGTTTGCCCGTAATAATTCCCCGTGCAGTACTATTGTTGCGACATAACAACATGAATTACATGGTAATAATAGATGTTTTCCTCTGCTGATTCCTGTAAAGATCATGACTCCATACGACATCATTTTTAATATTATACAGTTCAAAAAATCTACATGTGTCACAAATAATTTTACATTTGATAATGTATAGTTGTCACATGACAAGTTGATTATCATTCTGTGTAGACAAGGAGAACTGTTATGACGGAT (double strand) [P1/2 DHAP shunt promoter fragment] | binds | 
CGCCTAAGTTTGCCCGTAATAATTCCCCGTGCAGTACTATTGTTGCGACATAACAACATGAATTACATGGTAATAATAGATGTTTTCCTCTGCTGATTCCTGTAAAGATCATGACTCCATACGACATCATTTTTAATATTATACAGTTCAAAAAATCTACATGTGTCACAAATAATTTTACATTTGATAATGTATAGTTGTCACATGACAAGTTGATTATCATTCTGTGTAGACAAGGAGAACTGTTATGACGGAT (double strand) [P1/2 unlabeled competitor] |  | binds
